Test [1] addresses T1, human OX40 on cells (CHO-hOX40, 293HEK-hOX40, Jurkat-hOX40, activated primary CD4+ T cells) (human, UniProt P43489 29-277).
T1 sequence (looked up): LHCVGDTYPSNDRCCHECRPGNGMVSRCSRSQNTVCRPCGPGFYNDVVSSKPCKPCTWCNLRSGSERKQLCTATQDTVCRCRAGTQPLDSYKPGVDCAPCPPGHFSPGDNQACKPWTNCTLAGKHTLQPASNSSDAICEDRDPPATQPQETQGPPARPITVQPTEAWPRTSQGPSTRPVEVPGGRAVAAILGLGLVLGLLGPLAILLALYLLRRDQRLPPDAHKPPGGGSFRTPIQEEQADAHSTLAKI
Kind of test: cell-based or functional assay.

Test [2] has as its target T2, human OX40_Fc (R&D Systems) (human, UniProt P43489 29-216).
T2 construct: Bought
Kind of test: BLI, IgG1 on tip, hOX40-Fc 50 nM, avid. On the technique in general: Biolayer interferometry detects binding as a change in optical thickness at a sensor tip.

For test [3], the target named is T1, human OX40 on cells (CHO-hOX40, …). Kind of test: flow cytometry, MFI on CHO-hOX40 over wild-type CHO. In general terms: A flow cytometer gives signals particle by particle.
Test [4] deals with T3, cyno OX40_Fc (Acro Biosystems) (cyno).
T3 construct: Bought
Description: BLI, IgG1 on tip, cyno OX40-Fc 100 nM, avid.

Test [5] addresses T1, human OX40 on cells (CHO-hOX40, …). Kind of test: flow cytometry, CHO-hOX40, 100 nM.
The target in test [6] is T4, mouse OX40Fc (Acro Biosystems) (mouse, UniProt P47741 20-211, limits assumed).
T4 construct: Bought; not shown: Fc
T4 sequence (looked up): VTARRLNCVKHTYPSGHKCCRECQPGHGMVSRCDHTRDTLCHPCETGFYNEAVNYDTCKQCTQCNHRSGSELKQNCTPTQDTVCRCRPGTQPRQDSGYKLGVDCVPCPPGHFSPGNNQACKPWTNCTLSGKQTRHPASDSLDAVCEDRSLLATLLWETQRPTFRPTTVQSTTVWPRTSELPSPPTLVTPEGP
Description: BLI, IgG1 on tip, mouse OX40-Fc in solution.

Test [7] deals with T2, human OX40_Fc (R&D Systems). Description: BLI, hOX40-Fc on tip, Fab 200 nM, monovalent.
The target is the same in test [8]. Description: BLI, hOX40-Fc on tip, Fab 200 nM, monovalent. This is another data set of the same source.
For test [9], the target named is T1, human OX40 on cells (CHO-hOX40, …). Description: flow cytometry, CHO-hOX40, 0.390625 nM.
Test [10] shares this target. Kind of test: flow cytometry, CHO-hOX40, 3.125 nM.
Test [11] has the same target. Description: flow cytometry, CHO-hOX40, 6.25 nM.
Test [12] has the same target. Description: flow cytometry, CHO-hOX40, 0.09765625 nM.
Test [13] shares this target. Kind of test: flow cytometry, CHO-hOX40, 0.1953125 nM.
For test [14] the target is unchanged. Kind of test: flow cytometry, CHO-hOX40, 25 nM.
The target is the same in test [15]. Kind of test: flow cytometry, CHO-hOX40, 50 nM.
For test [16] the target is unchanged. Kind of test: flow cytometry, CHO-hOX40, 12.5 nM.
The target is the same in test [17]. Kind of test: flow cytometry, CHO-hOX40, 100 nM. The source holds these as a separate data set.
The target is the same in test [18]. Description: flow cytometry, CHO-hOX40, 0.024414063 nM.
Test [19] has the same target. Kind of test: flow cytometry, CHO-hOX40, IgG2 made in 293HEK.
For test [20] the target is unchanged. Kind of test: flow cytometry, CHO-hOX40, 0.048828125 nM.
For test [21] the target is unchanged. Description: flow cytometry, CHO-hOX40, 1.5625 nM.
Test [22] has the same target. Description: flow cytometry, CHO-hOX40, 200 nM.
Test [23] has the same target. Description: flow cytometry, CHO-hOX40, 0.78125 nM.

Numbering of substitutions follows the chain as printed.

The source of these data is US20200140562A1 (Innovent, published 2020).

B1: ADI-23515, IgG2 format (antibody)
heavy: QVQLQESGPGLVKPSQTLSLTCTVSGGSIRSGAYYWSWIRQHPGKGLEWIGYIYYDGQTYYNPSLKSRVTISVDTSKNQFSLKLSSVTAADTAVYYCARDVGYPHYYGMDVWGQGTTVTVSSASTKGPSVFPLAPCSRSTSESTAALGCLVKDYFPEPVTVSWNSGALTSGVHTFPAVLQSSGLYSLSSVVTVPSSNFGTQTYTCNVDHKPSNTKVDKTVERKCCVECPPCPAPPVAGPSVFLFPPKPKDTLMISRTPEVTCVVVDVSHEDPEVQFNWYVDGVEVHNAKTKPREEQFNSTFRVVSVLTVVHQDWLNGKEYKCKVSNKGLPAPIEKTISKTKGQPREPQVYTLPPSREEMTKNQVSLTCLVKGFYPSDIAVEWESNGQPENNYKTTPPMLDSDGSFFLYSKLTVDKSRWQQGNVFSCSVMHEALHNHYTQKSLSLSPG
light: EIVLTQSPGTLSLSPGERATLSCRASQSVSSSYLAWYQQKPGQAPRLLIYGASSRATGIPDRFSGSGSGTDFTLTISRLEPEDFAVYYCQQSERSPFTFGGGTKVEIKRTVAAPSVFIFPPSDEQLKSGTASVVCLLNNFYPREAKVQWKVDNALQSGNSQESVTEQDSKDSTYSLSSTLTLSKADYEKHKVYACEVTHQGLSSPVTKSFNRGEC
As for B1, the “EC50, NFkB-luciferase reporter in Jurkat-hOX40” value in [1] is 0.39 nM.

B2: ADI-25652, IgG1 format (antibody, V domains shown)
VH: QVQLVESGGGVVQPGRSLRLSCAASGFTFVSYNMHWVRQAPGKGLEWVAVIAYDGSVKYYADSVKGRFTISRDNSKNTLYLQMNSLRAEDTAVYYCARGRPWYSETGTSAFDIWGQGTMVTVSS
VL: DIQMTQSPSSLSASVGDRVTITCQASQDISNYLNWYQQKPGKAPKLLIYDASNLETGVPSRFSGSGSGTDFTFTISSLQPEDIATYYCQQSDHYPTFGGGTKVEIKR
notes: Made in yeast
In general, Kd refers to the concentration at which binding is half-saturated. Low readings indicate tighter binding, high ones weaker binding. In the case of B2, the values for the Kd in [2] and in [4] were 0.261 nM and 2.11 nM, respectively. Also, in test [3], the Fold difference came out at 2400 fold. The “CHO-OX40 binding intensity (MFI)” value in test [5] is 253000 MFI. Also, the binding result in [6] is given as “no binding (tested: 100 nM)”.

B3: ADI-20112, Fab (Fab, V domains shown)
VH: B2 VH with V30S, N33G, A52S, V57N
VL: B2 VL
Regarding B3, the Kd was found to be 63.9 nM in test [7] and 70.6 nM in test [8].

B4: ADI-25654, IgG1 format (antibody, V domains shown)
VH: B2 VH with V30R, N33D, V50Y, V57N
VL: B2 VL
notes: Made in yeast or CHO cells; also called ADI-25654-g1
In the case of B4, the Kd came to 0.283 nM in test [2] and 1.53 nM in test [4]. Also, the Fold difference in [3] amounted to 2260 fold. In test [5], the “CHO-OX40 binding intensity (MFI)” value came to 252000 MFI. The “EC50, NFkB-luciferase reporter in Jurkat-hOX40 mixed with Raji cells” value in test [1] was 0.0282 nM. The binding result in [6] was “no binding (tested: 100 nM)”.

B5: ADI-25651, IgG1 format (antibody, V domains shown)
VH: B2 VH with V30S, Y32R, V57L
VL: B2 VL
notes: Made in yeast
As for B5, the values for the Kd in test [2] and in test [4] were 0.268 nM and 1.37 nM, respectively. Further, the Fold difference in test [3] was 2340 fold. Moreover, the “CHO-OX40 binding intensity (MFI)” value in [5] was 253000 MFI. Moreover, the binding result in test [6] was “no binding (tested: 100 nM)”.

B6: ADI-25650, IgG1 format (antibody, V domains shown)
VH: B2 VH with V30S, S31V, V57A
VL: B2 VL
notes: Made in yeast
B6: the dissociation constant Kd was determined as 0.23 nM in test [2] and 1.6 nM in test [4]. Besides, the Fold difference in [3] is 2040 fold. Also, the “CHO-OX40 binding intensity (MFI)” value in test [5] was 252000 MFI. Further, in test [6], the binding result is on record as “no binding (tested: 100 nM)”.

B7: ADI-25653, IgG1 format (antibody, V domains shown)
VH: B2 VH with A52M, V57A
VL: B2 VL
notes: Made in yeast
Turning to B7, the Kd in test [2] came to 0.223 nM; in test [4], 1.15 nM. The Fold difference in test [3] was 2320 fold. In [5], the “CHO-OX40 binding intensity (MFI)” value came to 252000 MFI. Further, the binding result in test [6] was “no binding (tested: 100 nM)”.

B8: ADI-20051, IgG2 format (antibody)
heavy: QVQLQQWGAGLLKPSETLSLTCAVYGGSFSGYYWSWIRQPPGKGLEWIGEIDHSGSTNYNPSLKSRVTISVDTSKNQFSLKLSSVTAADTAVYYCARDGGGGYASPFDYWGQGTLVTVSSASTKGPSVFPLAPCSRSTSESTAALGCLVKDYFPEPVTVSWNSGALTSGVHTFPAVLQSSGLYSLSSVVTVPSSNFGTQTYTCNVDHKPSNTKVDKTVERKCCVECPPCPAPPVAGPSVFLFPPKPKDTLMISRTPEVTCVVVDVSHEDPEVQFNWYVDGVEVHNAKTKPREEQFNSTFRVVSVLTVVHQDWLNGKEYKCKVSNKGLPAPIEKTISKTKGQPREPQVYTLPPSREEMTKNQVSLTCLVKGFYPSDIAVEWESNGQPENNYKTTPPMLDSDGSFFLYSKLTVDKSRWQQGNVFSCSVMHEALHNHYTQKSLSLSPG
light: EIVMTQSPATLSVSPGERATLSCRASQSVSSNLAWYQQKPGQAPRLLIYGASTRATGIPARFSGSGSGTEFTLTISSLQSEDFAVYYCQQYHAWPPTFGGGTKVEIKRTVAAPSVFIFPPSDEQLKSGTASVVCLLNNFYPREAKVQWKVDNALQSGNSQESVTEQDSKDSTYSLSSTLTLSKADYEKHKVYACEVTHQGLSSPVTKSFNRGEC
notes: Made in 293HEK cells
In general, EC50 refers to the concentration needed to bring the measured effect to its halfway point. For B8, the MFI worked out at 156000 MFI in test [9]; 913000 MFI in test [10]; 1.33e+06 MFI in [11]; 40700 MFI in test [12]; 80500 MFI in [13]; 2.33e+06 MFI in test [14]. Also, the MFI was found to be 2.1e+06 MFI in test [15]; 1.62e+06 MFI in test [16]; 2.35e+06 MFI in test [17]; 20900 MFI in [18]; 19400 MFI in test [20]; 611000 MFI in [21]. The MFI in test [22] stood at 2.51e+06 MFI; in test [23] it was 315000 MFI. Further, a half-maximal response in test [19] (EC50) required 5.49 nM.
